# Measured values published in patent US20250269018A1, “COMBINED CANCER THERAPY WITH AN EPITHELIAL CELL ADHESION MOLECULE (EPCAM) INHIBITOR AND A HEPATOCYTE GROWTH FACTOR RECEPTOR (HGFR) INHIBITOR” (ACADEMIA SINICA, priority 2021, published 2025).
# T1: EpEX binding to HGFR (Homo sapiens, UniProt P16422)
# T1 construct: the soluble extracellular domain of EpCAM (EpEX); His; made in house; host or cells: Expi293
# T1 sequence (P16422 24-265 limits assumed): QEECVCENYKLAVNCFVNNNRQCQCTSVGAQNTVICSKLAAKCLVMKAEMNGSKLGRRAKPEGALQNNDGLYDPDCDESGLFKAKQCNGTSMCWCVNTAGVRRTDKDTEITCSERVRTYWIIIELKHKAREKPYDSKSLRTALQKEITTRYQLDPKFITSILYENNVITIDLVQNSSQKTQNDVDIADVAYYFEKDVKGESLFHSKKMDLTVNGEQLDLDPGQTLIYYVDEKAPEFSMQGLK
# B1: EpAb2-6: anti-EpCAM neutralizing monoclonal antibody targeting EpEX; VH SEQ ID NO: 15, VL SEQ ID NO: 16 (antibody, listed as Homo sapiens, V domains shown)
# VH: VKLQESGPELKKPGETVKISCKASGYTFTDYSMHWVKQAPGKGLKWMGWINTETGEPTYADDFKGRFAFSLETSASTAYLQINNLKNEDTATYFCARTAVYWGQGTTVTVSS
# VL: DIQMTQSPSSLSASLGERVSLTCRASQEISVSLSWLQQEPDGTIKRLIYATSTLDSGVPKRFSGSRSGSDYSLTISSLESEDFVDYYCLQYASYPWTFGGGTKLEIKRADAAPTVS
# Target: T1, EpEX binding to HGFR
# Test: ELISA of EpEX-His binding to HGFR-Fc-coated plates
# Settings: EpEX-His 2 μg/ml with 1 μg antibody; HGFR-Fc 1 μg/ml coated; FIG. 6F
# Description: FIGS. 6A to 6J. EpAb2-6 inhibits EpCAM and HGFR signaling and promotes active β-catenin and Snail protein degradation via activating GSK3β. (FIG. 6A) HCT116 cells were treated with 10 μg/ml control IgG (normal mouse IgG, NMIgG) or mouse EpAb2-6 (EpAb2-6) for 16 h, followed by treatment with EpEX-His (50 nM) for 15 min. Levels of phosphorylated HGFR, AKT, FAK, GSK3β, ERK, ADAM17, and presenilin 2 were examined by Western blotting. (FIG. 6B) HCT116 cells were treated with 10 μg/ml control IgG or mouse EpAb2-6 for 16 h, followed by treatment without or with HGF (0.5 nM) for 15 min. Levels of phosphorylated HGFR, AKT, and ERK were examined by Western blotting. HCT116 cells were treated with mouse EpAb2-6 (10 μg/ml) and HGF (0.5 nM). […] (FIG. 6D) Cell invasion was assessed by a Transwell assay with matrigel after 24 h. […] (FIG. 6F) EpEX-His (2 μg/ml) co-treated with 1 μg IgG or EpAb2-6 was added to HGFR-Fc-coated (1 μg/ml) ELISA plates and detected by TMB colorimetric peroxidase assay. (FIG. 6G) EMT associated protein levels were detected by Western blotting in HCT116 cells treated with NMIgG or EpAb2-6 for 24 h. (FIG. 6H) Protein expression was analyzed by Western blotting in HCT116 cells after treatment with EpAb2-6 and 2 μM GSK3β inhibitor (BIO) for 24 h. Quantification of the normalized protein expression in the bottom panel. […]
molecule,measurement,value
B1,EpEX binding to HGFR,inhibit EpEX binding to HGFR
